Holding throughout (assay): SPR
(In general: In SPR one partner is held on a chip, and binding of the other changes the refractive index at the surface.)

Assay [1] concerns the target T1, human FcγRIa (human, UniProt P12314).
T1 chain: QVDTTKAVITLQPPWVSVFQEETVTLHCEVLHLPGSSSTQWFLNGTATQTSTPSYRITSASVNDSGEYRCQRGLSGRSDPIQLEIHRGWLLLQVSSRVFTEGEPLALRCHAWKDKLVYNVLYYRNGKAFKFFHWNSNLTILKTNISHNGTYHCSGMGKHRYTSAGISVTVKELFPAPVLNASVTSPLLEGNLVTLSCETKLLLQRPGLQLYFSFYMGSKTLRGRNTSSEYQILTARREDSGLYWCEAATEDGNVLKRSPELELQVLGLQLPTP

The target of a further assay is T2, human FcγRIIa R131 (human, UniProt P12318).
T2 chain: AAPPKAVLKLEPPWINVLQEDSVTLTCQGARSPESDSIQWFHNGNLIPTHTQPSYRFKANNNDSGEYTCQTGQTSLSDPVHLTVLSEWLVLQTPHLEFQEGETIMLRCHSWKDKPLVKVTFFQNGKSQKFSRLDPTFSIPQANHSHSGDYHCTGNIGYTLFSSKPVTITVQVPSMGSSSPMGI

A further assay deals with T3, human FcγRIIb (human, UniProt P31994).
T3 chain: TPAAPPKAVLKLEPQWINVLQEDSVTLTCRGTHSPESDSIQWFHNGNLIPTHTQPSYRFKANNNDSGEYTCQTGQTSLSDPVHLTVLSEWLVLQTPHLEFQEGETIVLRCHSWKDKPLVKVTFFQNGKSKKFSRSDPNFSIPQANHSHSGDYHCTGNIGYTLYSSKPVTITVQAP

A further assay has as its target human FcγRIIIa V158 (human, UniProt P08637).
Another assay deals with T4, human FcγRIIa H131 (human, UniProt P12318).
T4 chain: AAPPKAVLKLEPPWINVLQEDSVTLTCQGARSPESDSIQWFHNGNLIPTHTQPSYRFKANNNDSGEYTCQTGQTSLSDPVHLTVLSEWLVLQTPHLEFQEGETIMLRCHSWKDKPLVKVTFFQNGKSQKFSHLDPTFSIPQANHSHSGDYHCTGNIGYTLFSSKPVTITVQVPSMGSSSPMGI

Assay [2] concerns the target T1, human FcγRIa.

Read-outs that look alike come from different tables or passages of the source.

Sequence of human FcγRIIIa V158 (P08637 17-208 F176V): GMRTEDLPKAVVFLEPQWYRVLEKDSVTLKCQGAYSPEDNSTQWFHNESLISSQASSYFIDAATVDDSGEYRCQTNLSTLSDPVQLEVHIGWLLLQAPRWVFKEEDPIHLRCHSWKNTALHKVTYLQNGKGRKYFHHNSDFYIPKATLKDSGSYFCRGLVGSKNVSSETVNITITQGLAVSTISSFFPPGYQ

B1: IL6R-BP220 (antibody)
chain 1: QVQLQESGPGLVKPSETLSLTCAVSGHSISHDHAWSWVRQPPGEGLEWIGFISYSGITNYNPSLQGRVTISRDNSKNTLYLQMNSLRAEDTAVYYCARSLARTTAMDYWGEGTLVTVSSASTKGPSVFPLAPSSKSTSGGTAALGCLVKDYFPEPVTVSWNSGALTSGVHTFPAVLQSSGLYSLSSVVTVPSSSLGTQTYICNVNHKPSNTKVDKKVEPKSCDKTHTCPPCPAPDLLGDDSVFLFPPKPKDTLMISRTPEVTCVVVDVSDEDGEVKFNWYVDGVEVHNAKTKPREEQDNSTYRVVSVLTVLHQDWLNGKEYKCKVSNKALPKPIEKTISKAKGQPREPQVYTLPPSRDELTKNQVSLTCLVKGFYPSDIAVEWESNGQPENNYKTTPPVLDSDGSFFLYSKLTVDKSRWQQGNVFSCSVMHEALHNHYTQESLSLSP
chain 2: not shown
A word on the Kd: it is the equilibrium constant for the complex coming apart. As to B1, the affinity with human FcγRIa [1], expressed as Kd, was 20 nM. That is a double-digit nanomolar value.

B2: IL6R-BP492 (antibody)
chain 1: QVQLQESGPGLVKPSETLSLTCAVSGHSISHDHAWSWVRQPPGEGLEWIGFISYSGITNYNPSLQGRVTISRDNSKNTLYLQMNSLRAEDTAVYYCARSLARTTAMDYWGEGTLVTVSSASTKGPSVFPLAPSSKSTSGGTAALGCLVKDYFPEPVTVSWNSGALTSGVHTFPAVLQSSGLYSLSSVVTVPSSSLGTQTYICNVNHKPSNTKVDKKVEPKSCDKTHTCPPCPAPELLGGDSVFLFPPKPKDTLMISRTPEVTCVVIDVAEEDGEVKFNWYVDGVEVHNAKTKPREEQYNSTYRVVSVLTVLHQDWLNGKEYKCKVSNKALPAPIEKTISKAKGQPREPQVYTLPPSRDELTKNQVSLTCLVKGFYPSDIAVEWESNGQPENNYKTTPPVLDSDGSFFLYSKLTVDKSRWQQGNVFSCSVMHEALHNHYTQESLSLSP
chain 2: not shown
On to B2, for which the Kd with human FcγRIIa R131 was determined as 920 nM; in the assay with human FcγRIIb it was 24 nM; with human FcγRIIIa V158 it was 36000 nM; with human FcγRIIa H131 it was 16000 nM; with human FcγRIa [2] it was 0.79 nM.

B3: IL6R-BP233 (antibody)
chain 1: QVQLQESGPGLVKPSETLSLTCAVSGHSISHDHAWSWVRQPPGEGLEWIGFISYSGITNYNPSLQGRVTISRDNSKNTLYLQMNSLRAEDTAVYYCARSLARTTAMDYWGEGTLVTVSSASTKGPSVFPLAPSSKSTSGGTAALGCLVKDYFPEPVTVSWNSGALTSGVHTFPAVLQSSGLYSLSSVVTVPSSSLGTQTYICNVNHKPSNTKVDKKVEPKSCDKTHTCPPCPAPEYLGDDSVFLFPPKPKDTLMISRTPEVTCVVVDVSHEDGEVKFNWYVDGVEVHNAKTKPREEQYNSTYRVVSVLTVLHQDWLNGKEYKCKVSNKALPKPIEKTISKAKGQPREPQVYTLPPSRDELTKNQVSLTCLVKGFYPSDIAVEWESNGQPENNYKTTPPVLDSDGSFFLYSKLTVDKSRWQQGNVFSCSVMHEALHNHYTQESLSLSP
chain 2: not shown
Molecule B3 had a Kd with human FcγRIa [1] of 70 nM.

B4: IL6R-BP487 (antibody)
chain 1: QVQLQESGPGLVKPSETLSLTCAVSGHSISHDHAWSWVRQPPGEGLEWIGFISYSGITNYNPSLQGRVTISRDNSKNTLYLQMNSLRAEDTAVYYCARSLARTTAMDYWGEGTLVTVSSASTKGPSVFPLAPSSKSTSGGTAALGCLVKDYFPEPVTVSWNSGALTSGVHTFPAVLQSSGLYSLSSVVTVPSSSLGTQTYICNVNHKPSNTKVDKKVEPKSCDKTHTCPPCPAPDLLGDDSVFLFPPKPKDTLMISRTPEVTCVVIDVAEEDGEVKFNWYVDGVEVHNAKTKPREEQYNSTYRVVSVLTVLHQDWLNGKEYKCKVSNKALPRPIEKTISKAKGQPREPQVYTLPPSRDELTKNQVSLTCLVKGFYPSDIAVEWESNGQPENNYKTTPMVLDSDGSFFLYSKLTVDKSRWQQGNVFSCSVMHEALHNHYTQESLSLSP
chain 2: not shown
For B4, the Kd was 39 nM with human FcγRIIa R131; 1.2 nM with human FcγRIIb; 10000 nM with human FcγRIIIa V158; 840 nM in the assay with human FcγRIIa H131; 1.2 nM with human FcγRIa [2].

B5: IL6R-BP497 (antibody)
chain 1: QVQLQESGPGLVKPSETLSLTCAVSGHSISHDHAWSWVRQPPGEGLEWIGFISYSGITNYNPSLQGRVTISRDNSKNTLYLQMNSLRAEDTAVYYCARSLARTTAMDYWGEGTLVTVSSASTKGPSVFPLAPSSKSTSGGTAALGCLVKDYFPEPVTVSWNSGALTSGVHTFPAVLQSSGLYSLSSVVTVPSSSLGTQTYICNVNHKPSNTKVDKKVEPKSCDKTHTCPPCPAPDLLGDDSVFLFPPKPKDTLMISRTPEVTCVVIDVAEEDGEVKFNWYVDGVEVHNAKTKPREEQYNSTYRVVSVLTVLHQDWLNGKEYKCKVSNKGLPRPIEKTISKAKGQPREPQVYTLPPSRDELTKNQVSLTCLVKGFYPSDIAVEWESNGQPENNYKTTPPVLDSDGSFFLYSKLTVDKSRWQQGNVFSCSVMHEALHNHYTQESLSLSP
chain 2: not shown
Regarding B5, the Kd was found to be 85 nM in the assay with human FcγRIIa R131; 4.1 nM with human FcγRIIb; 28000 nM in the assay with human FcγRIIIa V158; 960 nM with human FcγRIIa H131; 2.1 nM in the assay with human FcγRIa [2].

B6: IL6R-BP500 (antibody)
chain 1: QVQLQESGPGLVKPSETLSLTCAVSGHSISHDHAWSWVRQPPGEGLEWIGFISYSGITNYNPSLQGRVTISRDNSKNTLYLQMNSLRAEDTAVYYCARSLARTTAMDYWGEGTLVTVSSASTKGPSVFPLAPSSKSTSGGTAALGCLVKDYFPEPVTVSWNSGALTSGVHTFPAVLQSSGLYSLSSVVTVPSSSLGTQTYICNVNHKPSNTKVDKKVEPKSCDKTHTCPPCPAPELLGDDSVFLFPPKPKDTLMISRTPEVTCVVIDVAEEDGEVKFNWYVDGVEVHNAKTKPREEQDNSTYRVVSVLTVLHQDWLNGKEYKCKVSNKALPAPIEKTISKAKGQPREPQVYTLPPSRDELTKNQVSLTCLVKGFYPSDIAVEWESNGQPENNYKTTPPVLDSDGSFFLYSKLTVDKSRWQQGNVFSCSVMHEALHNHYTQESLSLSP
chain 2: not shown
Turning to B6, the Kd was 720 nM with human FcγRIIa R131; 24 nM with human FcγRIIb; 39000 nM with human FcγRIIIa V158; 25000 nM with human FcγRIIa H131; 2.3 nM with human FcγRIa [2].

B7: IL6R-BP246 (antibody)
chain 1: QVQLQESGPGLVKPSETLSLTCAVSGHSISHDHAWSWVRQPPGEGLEWIGFISYSGITNYNPSLQGRVTISRDNSKNTLYLQMNSLRAEDTAVYYCARSLARTTAMDYWGEGTLVTVSSASTKGPSVFPLAPSSKSTSGGTAALGCLVKDYFPEPVTVSWNSGALTSGVHTFPAVLQSSGLYSLSSVVTVPSSSLGTQTYICNVNHKPSNTKVDKKVEPKSCDKTHTCPPCPAPDLLGDDSVFLFPPKPKDTLMISRTPEVTCVVVDVQDEDGEVKFNWYVDGVEVHNAKTKPREEQDNSTYRVVSVLTVLHQDWLNGKEYKCKVSNAALPRPIEKTISKAKGQPREPQVYTLPPSRDELTKNQVSLTCLVKGFYPSDIAVEWESNGQPENNYKTTPPVLDSDGSFFLYSKLTVDKSRWQQGNVFSCSVMHEALHNHYTQESLSLSP
chain 2: not shown
Regarding B7, in the assay with human FcγRIa [1], the Kd came out at 8 nM.

B8: IL6R-BP249 (antibody)
chain 1: QVQLQESGPGLVKPSETLSLTCAVSGHSISHDHAWSWVRQPPGEGLEWIGFISYSGITNYNPSLQGRVTISRDNSKNTLYLQMNSLRAEDTAVYYCARSLARTTAMDYWGEGTLVTVSSASTKGPSVFPLAPSSKSTSGGTAALGCLVKDYFPEPVTVSWNSGALTSGVHTFPAVLQSSGLYSLSSVVTVPSSSLGTQTYICNVNHKPSNTKVDKKVEPKSCDKTHTCPPCPAPDYLGDDSVFLFPPKPKDTLMISRTPEVTCVVVDVSDEDGEVKFNWYVDGVEVHNAKTKPREEQDNSTYRVVSVLTVLHQDWLNGKEYKCKVSNKALPRPIEKTISKAKGQPREPQVYTLPPSRDELTKNQVSLTCLVKGFYPSDIAVEWESNGQPENNYKTTPPVLDSDGSFFLYSKLTVDKSRWQQGNVFSCSVMHEALHNHYTQESLSLSP
chain 2: not shown
The molecule B8 had a Kd with human FcγRIa [1] of 7 nM.

B9: IL6R-BP508 (antibody)
chain 1: QVQLQESGPGLVKPSETLSLTCAVSGHSISHDHAWSWVRQPPGEGLEWIGFISYSGITNYNPSLQGRVTISRDNSKNTLYLQMNSLRAEDTAVYYCARSLARTTAMDYWGEGTLVTVSSASTKGPSVFPLAPSSKSTSGGTAALGCLVKDYFPEPVTVSWNSGALTSGVHTFPAVLQSSGLYSLSSVVTVPSSSLGTQTYICNVNHKPSNTKVDKKVEPKSCDKTHTCPPCPAPDLLGDDSVFLFPPKPKDTLMISRTPEVTCVVIDVAEEDGPVKFNWYVDGVEVHNAKTKPREEQDNSTYRVVSVLTVLHQDWLNGKEYKCKVSNKALPAPIEKTISKAKGQPREPQVYTLPPSRDELTKNQVSLTCLVKGFYPSDIAVEWESNGQPENNYKTTPPVLDSDGSFFLYSKLTVDKSRWQQGNVFSCSVMHEALHNHYTQESLSLSP
chain 2: not shown
For B9, the Kd with human FcγRIIa R131 was 540 nM; in the assay with human FcγRIIb, 21 nM; in the assay with human FcγRIIIa V158 it was 61000 nM; in the assay with human FcγRIIa H131 it was 20000 nM; in the assay with human FcγRIa [2], 1.4 nM.

The values above are taken from patent publication US11827699 (dated 2023).
